Data set [1] concerns the target receptor for App on Chang conjunctiva epithelial cells (proteinaceous, not identified) (human). Description: cell-based or functional assay.
The target is the same in data set [2]. Description: FACS binding assay on Chang cells (FIG. 35).
Data set [3] deals with human receptor for NadA on Chang conjunctiva epithelial cells (pronase-sensitive protein, not identified) (human). Description: FACS on Chang cells, MFI against protein concentration.
Data set [4] deals with the molecule itself. Description: Western blot of whole cell lysates with anti-NadA serum (self-association). (In western blotting, separated proteins are transferred to a membrane and probed.)

This is an account of results in patent US20140294884A1 (Novartis, published 2014).

Consider “App S267A expressed on the surface of E. coli (pET-AppS267A transformants)”, for which the fluorescence shift (cells positive to adhesion), FACS adhesion of E. coli to Chang cells in data set [1] was determined as 91%.

On to “App expressed from the full-length gene on the surface of E. coli (pET-App transformants)”, for which the fluorescence shift (cells positive to adhesion), FACS adhesion of E. coli to Chang cells in data set [1] came to 90.3%.

In data set [2], App-His had a concentration at which binding reaches a plateau of 50 µg/mL.

For “Appβ expressed on the surface of E. coli (pET-Appβ transformants)”, the fluorescence shift, FACS adhesion of E. coli to Chang cells in data set [1] worked out at 74.2%.

As to “NadA (purified recombinant protein used in FACS binding to Chang cells)”, the concentration at which binding reaches a plateau in data set [3] came to 200 µg/mL.

B1: NadA allele 2 (strain 90/18311) (other)
chain: ATNDDDVKKAATVAIAAAYNNGQEINGFKAGETIYDIDEDGTITKKDATAADVEADDFKGLGLKKVVTNLTKTVNENKQNVDAKVKAAESEIEKLTTKLADTDAALDATTNALNKLGENITTFAEETKTNIVKIDEKLEAVADTVDKHAEAFNDIADSLDETNTKADEAVKTANEAKQTAEETKQNVDAKVKAAETAAGKAEAAAGTANTAADKAEAVAAKVTDIKADIATNKDNIAKKANSADVYTREESDSKFVRIDGLNATTEKLDTRLASAEKSITEHGTRLNGLDRTVSDLRKETRQGLAEQAALSGLFQPYNVGRFNVTAAVGGYKSESAVAIGTGFRFTENFAAKAGVAVGTSSGSSAAYHVGVNYEW
notes: also called allele 2 of 961
B1: the binding result in data set [4] is “binds”.

B2: NadA allele 1 (strain MC58) (other)
chain: ATSDDDVKKAATVAIVAAYNNGQEINGFKAGETIYDIGEDGTITQKDATAADVEADDFKGLGLKKVVTNLTKTVNENKQNVDAKVKAAESEIEKLTTKLADTDAALADTDAALDETTNALNKLGENITTFAEETKTNIVKIDEKLEAVADTVDKHAEAFNDIADSLDETNTKADEAVKTANEAKQTAEETKQNVDAKVKAAETAAGKAEAAAGTANTAADKAEAVAAKVTDIKADIATNKADIAKNSARIDSLDKNVANLRKETRQGLAEQAALSGLFQPYNVGRFNVTAAVGGYKSESAVAIGTGFRFTENFAAKAGVAVGTSSGSSAAYHVGVNYEW
notes: Oligomer of about 170 kDa; also called allele 1 of 961
Regarding B2, the binding result in data set [4] is on record as “binds”.
